Tests used:
[1] = tested on: Wnt pathway; assay: Wnt pathway activation by CKI isoforms (ectopic axis in Xenopus embryos and Lef-1 reporter gene assay); format: cell-based
Procedure: There are seven mammalian CKI isoforms (α, β, γ1−3, δ and ε). All these isoforms contain a conserved serine-threonine kinase domain and various amino terminal and carboxyl terminal domains. CKIε and CKIδ the most closely related isoforms have a longer carboxy terminus compared to the other isoforms. […] The activation of the Wnt pathway was analyzed by induction of ectopic axis in Xenopus embryos and the Lef-1 reporter gene assay.
Lef-1 reporter assays were carried out as done as described in Sakanaka et al. (1998) Proc Natl Acad Sci USA. 95:3020-3. For example, 293 cells were seeded at 2×10^5 cells/well in 12-well culture plates. Cells were transfected with 0.2 μg of the luciferase reporter gene, 0.02 μg of Lef-1, 0.03 μg of pTK-β-gal as an internal control, the indicated amount of CKIε, Axin or Wnt-1 cDNA, and pcDNA3.1 vector to a total amount of 0.4 μg of plasmids. Transfection was performed by Lipofectamine (Lifetechnologies Inc. #18324012). Luciferase and β-gal activities were measured 48 h after transfection. Relative light units (RLU) were measured with a luminometer (Analytical Luminescence Laboratory, Monolight 2010).

[2] = tested on: Arm (β-catenin); assay: Arm (β-catenin) protein level in stable Drosophila Schneider cells, Western blot; format: cell-based; conditions: cells expressing CKIε and Sgg (GSK3)
Source text: Drosophila Schneider cell lines were derived that stably express CKIε in the presence or absence of Drosophila Sgg (GSK3) protein. CKIε and sgg (GSK3) gene expression were controlled by a metallothionein promoter which is induced by copper. […] In the cells expressing CKIε and Sgg (GSK3), Arm (β-catenin) protein level is reduced.
CKIε was PCR-cloned into a vector pRmHa-3 containing a copper-inducible promoter (metallothionine). It was co-transfected with pMKK3 containing the neo-gene (G418-resistant gene) into Drosophila Schneider cells. G418 was used for selection of a stable cell line. In addition, stable cell lines containing combinations of CKIε+wt sgg, CKIε+Actsgg, CKIKD, CKIKD+DN Sgg were made. Actsgg is a mutant containing a mutation of Ser9 to Ala. To detect stabilized Arm, cells were plated 16 hours before the copper induction and lysed three hours after the copper induction. Western blots were performed with anti-Arm mAb 7A12.

B1: CKIα: casein kinase I α isoform (protein, UniProt P48729 2-337, looked up)
Casein kinase I isoform alpha: ASSSGSKAEFIVGGKYKLVRKIGSGSFGDIYLAINITNGEEVAVKLESQKARHPQLLYESKLYKILQGGVGIPHIRWYGQEKDYNVLVMDLLGPSLEDLFNFCSRRFTMKTVLMLADQMISRIEYVHTKNFIHRDIKPDNFLMGIGRHCNKLFLIDFGLAKKYRDNRTRQHIPYREDKNLTGTARYASINAHLGIEQSRRDDMESLGYVLMYFNRTSLPWQGLKAATKKQKYEKISEKKMSTPVEVLCKGFPAEFAMYLNYCRGLRFEEAPDYMYLRQLFRILFRTLNHQYDYTFDWTMLKQKAAQQAASSSGQGQQAQTPTGKQTDKTKSNMKGF
[1]
  activation of the Wnt pathway: not the case

B2: Sgg: Drosophila Sgg (GSK3) protein, copper-inducible expression (protein, UniProt P18431 1-514, looked up)
Protein kinase shaggy: MSGRPRTSSFAEGNKQSPSLVLGGVKTCSRDGSKITTVVATPGQGTDRVQEVSYTDTKVIGNGSFGVVFQAKLCDTGELVAIKKVLQDRRFKNRELQIMRKLEHCNIVKLLYFFYSSGEKRDEVFLNLVLEYIPETVYKVARQYAKTKQTIPINFIRLYMYQLFRSLAYIHSLGICHRDIKPQNLLLDPETAVLKLCDFGSAKQLLHGEPNVSYICSRYYRAPELIFGAINYTTKIDVWSAGCVLAELLLGQPIFPGDSGVDQLVEVIKVLGTPTREQIREMNPNYTEFKFPQIKSHPWQKVFRIRTPTEAINLVSLLLEYTPSARITPLKACAHPFFDELRMEGNHTLPNGRDMPPLFNFTEHELSIQPSLVPQLLPKHLQNASGPGGNRPSAGGAASIAASGSTSVSSTGSGASVEGSAQPQSQGTAAAAGSGSGGATAGTGGASAGGPGSGNNSSSGGASGAPSAVAAGGANAAVAGGAGGGGGAGAATAAATATGAIGATNAGGANVTDS
[2]
  Arm (β-catenin) protein level: reduced

B3: CKIδ: casein kinase I δ isoform (protein, UniProt P48730 1-415, looked up)
Casein kinase I isoform delta: MELRVGNRYRLGRKIGSGSFGDIYLGTDIAAGEEVAIKLECVKTKHPQLHIESKIYKMMQGGVGIPTIRWCGAEGDYNVMVMELLGPSLEDLFNFCSRKFSLKTVLLLADQMISRIEYIHSKNFIHRDVKPDNFLMGLGKKGNLVYIIDFGLAKKYRDARTHQHIPYRENKNLTGTARYASINTHLGIEQSRRDDLESLGYVLMYFNLGSLPWQGLKAATKRQKYERISEKKMSTPIEVLCKGYPSEFATYLNFCRSLRFDDKPDYSYLRQLFRNLFHRQGFSYDYVFDWNMLKFGASRAADDAERERRDREERLRHSRNPATRGLPSTASGRLRGTQEVAPPTPLTPTSHTANTSPRPVSGMERERKVSMRLHRGAPVNISSSDLTGRQDTSRMSTSQIPGRVASSGLQSVVHR
[1]
  activation of the Wnt pathway: activate the Wnt pathway
